Reference: the supplement of paper PMC12764529
± gives the half width of the 95% confidence interval.

Columns and labels:
[1] = folding stability dG unfold from chymotrypsin proteolysis; higher = more stable
Outline: (§1)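 Only designs with AlphaFold2 dimer inter-PAE above 15 were retained; each was a mini-protein under 80 residues with no cysteine, in a PA-tagged cDNA display construct. After digestion with trypsin and chymotrypsin and sequencing, K50 was inferred by Bayesian fitting of counts, and unfolding free energy was derived per protease or combined against a sequence-predicted unfolded-state K50 and a shared folded-state K50.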

[2] = folding stability dG unfold from trypsin proteolysis; higher = more stable
Outline: as §1

[3] = folding stability dG unfold (combined trypsin and chymotrypsin); higher = more stable
Outline: as §1

Row | Sequence | folding stability dG unfold [1] [kcal/mol] | folding stability dG unfold [2] [kcal/mol] | folding stability dG unfold [3] [kcal/mol]
1 | SADPNYHYKYKIKIEIAWFPPDDLEKLPPGMIMIPFDDHWIMIVIKLEPVEREPPPPPPEYDPETGDWKSAG [r14_126_TrROS] | 3.38 ± 0.17 | 2.5 ± 0.43 | 3.23 ± 0.46
2 | SADSVPIKLTFTFEVPEEIYEAAVKAIEDIFKDLGLEVEFEAKAEPGEEGVKVTVELNLTIPPNNPNLISAG [r14_76_TrMRF] | 3.31 ± 0.096 | 2.44 ± 0.2 | 3.07 ± 0.16
3 | SADVVVIHARSPEELRAALEEARKEGKTVRIVVSREELDELKALLPEDVKIEVLKNENGEELVVIEVKVSAG [r14_127_TrROS_Hall] | 3.11 ± 0.28 | 4.32 ± 0.23 | 4.15 ± 0.43
4 | SAEEAAKNFKPIRIRLRDPRGRLYEVERIELTPDGRLLITLRLPNETRTYLIEPDHPFPLPPDLIIEVEGSA [r9_993_TrMRF] | 3.59 ± 0.043 | 2.74 ± 0.049 | 3.34 ± 0.08
5 | SAEEEEVVEVELEIEIEMTPEELEELIEALRKAAEELGFEIEDIEIRVERKEDGTLRVTIRVKIRLPKPSAG [r14_109_TrROS_Hall] | 4.69 ± 0.48 | 3.68 ± 0.13 | 4.2 ± 0.23
6 | SAEKTLTIPITLENGATLTITVYEDRIEATLEVDGLTGTGYTLPDGTVVLNLRAPGNKPIASPVFTLDLSAG [r14_213_TrMRF] | 2.48 ± 0.06 | 1.73 ± 0.058 | 2.31 ± 0.12
7 | SAELEELLKKAEELAKKNNVEVEVEVKLELEPVKVTEYKLNKDGKPVEKKEEEELELRLEIKVKIRPKKSAG [r14_728_TrROS_Hall] | 3.22 ± 0.2 | 1.26 ± 0.2 | 2.58 ± 0.35
8 | SAELKISKIDVSSLPDGSKKVTVNFSAPNFKVTITLDKSGNVSVEVSPEARKLPPEFFNLILNLAKELGSAG [r14_555_TrMRF] | 4.14 ± 0.1 | 3.64 ± 0.15 | 3.96 ± 0.1
9 | SAELLDALKKNGWTIRIPIKHPGNGETWPMPFRIEPDGDGWKISIPPPNGKPHPFKIEDIEIMPPEDLKSAG [r14_427_TrROS] | 0.406 ± 0.42 | 0.723 ± 0.11 | 0.561 ± 0.2
10 | SAEMKIEKIEVKPLEEEPELVEITIKVKDPEKLKEALEKAGFTVEEVDEEEGKLTITMSREQLEKLLKASAG [r14_777_TrROS_Hall] | 1.68 ± 0.14 | 1.85 ± 0.1 | 1.91 ± 0.31
11 | SAEPTLAEATNDPATGTATANFPLENLPPDYRVLAVNLETGEVTEFPPDGEVTITAPEGPVLVKLFWKGSAG [r14_134_TrMRF] | -0.512 ± 0.55 | 0.608 ± 0.13 | 0.213 ± 0.15
12 | SAETKAEVFRFGDVLVVVTEERVTTPDGSERPVYTVTLLVYDPSTGKWTPFSRPFSSKEDAAKALSSGVSAG [r14_500_TrMRF] | 2.22 ± 0.083 | 1.52 ± 0.07 | 1.98 ± 0.15
13 | SAETRTLTIRIPAKDLTPEQIRALLRALLPEDATITEVRIERDEDGYITVTIVVTNPDGSKQEIRLVFPSAG [r14_30_TrROS_Hall] | 2.64 ± 0.031 | 2.527 ± 0.024 | 2.6 ± 0.085
14 | SAETVTITLPGATITVEKVDGKWIATVTKVEPGADKVTVEVTLTKVDEDGNTTTVTETVTIDAKTGKVLSAG [r14_724_TrROS_Hall] | 2.92 ± 0.19 | 2.7 ± 0.32 | 2.81 ± 0.23
15 | SAETVVTPRRSTLPDGTRLEEDVVTLPDGTTVTPVRVVRRDPETGREVVEFWVRTTDPATGTTTTTPLPSAG [r14_324_JUSTAS] | 1.72 ± 0.059 | -0.198 ± 0.12 | 1.23 ± 0.051
16 | SAEVEIEVVEKDGKLYLVIRVRFPPGLKPGDKVTLTLTLPNGAKVTITRDKDGTRYITIVVELKDLEKLSAG [r14_754_TrROS_Hall] | 5.23 ± 0.13 | 3.94 ± 0.41 | 4.69 ± 0.22
17 | SAEVEVLPFEFELPNGLRVEVHLVRLPDGTVVAPVLLVEYDPVTGEPRLSRAVAVFDPSTGKVTVLPLDSAG [r14_324_TrMRF] | 2.993 ± 0.017 | 3.01 ± 0.047 | 2.97 ± 0.042
18 | SAEVYEFGNAVVVVTTSPDGTVRVYVFNPETGEVTEIEIHPDTPGEYKVRPLGNGEVKEATVPVSDILPVSA [r9_1071_TrMRF] | 1.42 ± 0.2 | 0.851 ± 0.051 | 1.19 ± 0.23
19 | SAFNIEIEEVDPNEIYIKIDATPEQLEEIAEDIMKNFPGYKVKWEWDDEQGKIWFRIRPVPPPPPEDQNSAG [r14_600_TrROS] | 1.97 ± 0.13 | 1.14 ± 0.1 | 1.96 ± 0.29
20 | SAFRIKIELWNPNGKPQEHTFPVPPGDPDKLVEEIEDEVQKHHPNDGYKMRAEILEVTPNGWVTIRIWYSAG [r14_622_TrROS] | 3.01 ± 0.11 | 2.66 ± 0.077 | 2.79 ± 0.18
21 | SAGAAPGEPVVLVLPDGTVIPVIPRPDGSATLDAVAPSADGTYTVTASLPATGTTVTLELSAPPSFVAASAG [r5_394_TrMRF] | 0.824 ± 0.052 | 1.43 ± 0.038 | 1.16 ± 0.043
22 | SAGAKEITAEELAEIVREFAAALPPDVKEPVTVEITVPLEDGRVLVFKVTVERSPDGVKATVEVSPGASAGG [r19_220_TrMRF] | 3.43 ± 0.037 | 2.4 ± 0.13 | 3.21 ± 0.18
23 | SAGAKVTVEPVKVEPLPNGEVKVTAKVTIYDPNTTKPTEIEVTGTYKLHPNGKPVKPETIVAEAIKKAASAG [r5_604_TrMRF] | 0.337 ± 0.17 | 0.426 ± 0.038 | 0.459 ± 0.14
24 | SAGALEETTLPLPRPESLPDVSPEVLAALILALLSAVGVTVEVLSSDPANPVTAMVATRDGRVVLRALASAG [r5_80_JUSTAS] | 2.34 ± 0.051 | 1.58 ± 0.049 | 2.06 ± 0.068
25 | SAGAPLEVPGPLVTVTEEEVPGKPLVFIPTPDGLIVVDLVTGKAERYPLYSEEPIVLDVPPGVVIELPSAGG [r19_138_JUSTAS] | 0.398 ± 0.13 | 1.02 ± 0.073 | 0.819 ± 0.077
26 | SAGASVEQWSLTSVEVTELPGPEVVVPMTARLPDGTEVVMSGVVGPGSVTLTSPDGSTSTLAIPPALASAGG [r19_84_JUSTAS] | 0.734 ± 0.045 | 1.2 ± 0.023 | 1.03 ± 0.04
